Here are results for nine substances from patent publication US8785391B2, “Compound and method for treatment of alzheimer's disease and familial dementia” (Alphabeta AB, priority 2010, dated 2014).

One data set addresses T1, recombinant Bri2(90-236) (Homo sapiens, UniProt Q9Y287).
T1 construct: His6 (N, cleaved yes); thioredoxin (N, cleaved yes); made in house; host or cells: E. coli Origami(DE3)pLysS, pET-32c vector
T1 sequence (Q9Y287 90-236): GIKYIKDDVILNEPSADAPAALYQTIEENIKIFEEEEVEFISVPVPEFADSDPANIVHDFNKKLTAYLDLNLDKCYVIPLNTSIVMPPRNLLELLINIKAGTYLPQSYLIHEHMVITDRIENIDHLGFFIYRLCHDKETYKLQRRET
The data set can be described thus: ESI-MS binding of peptides to recombinant Bri2(90-236) (substrate specificity). The conditions noted are these: 20 μM Bri2(90-236); for complex formation of peptide with recombinant Bri2(90-236): 50 μM peptide (peptide/protein ratio 2.5). As for the experimental part: Prior to electrospray ionization mass spectrometry (ESI-MS), purified Bri2(90-236) (SEQ ID NO: 2) was rebuffered into 10 mM ammonium acetate, pH 7.0, using spin columns with a 3 kDa cut-off limit (Nanosep, Pall Corp., East Hills, N.Y., USA). Protein and peptides were mixed at 22° C. directly before analysis at a final protein concentration of 20 μM and a final peptide concentration of 50 μM. Data was acquired using a QTOF Ultima API mass spectrometer (Waters, Milford, Mass., USA) equipped with a Z-spray source operated in the positive-ion mode. Samples were introduced via nano-electrospray using metal-plated borosilicate glass capillary needles (Proxeon, Denmark). The source temperature was 80° C., the capillary voltage 1.7 kV, and the cone and RF lens 1 potentials were 100 and 38 V, respectively. The mass spectrometer was operated in single-reflector mode at a resolution of 10 000 (full width half maximum definition), and the mass scale was calibrated using myoglobin. Scans were acquired at a rate of 1 scan per 2 sec between 500 and 4000 m/z. The collision gas was argon at 5.2×10^−5 mbar. Mass spectra were smoothed using the Waters MassLynx software.
All peptides, with the exception of KFFEYNGKKFFE (SEQ ID NO: 15), ABri23 (SEQ ID NO: 4) and Aβ1-40 (SEQ ID NO: 11), were purchased from Thermo Electron (Darmstadt, Germany). KFFEYNGKKFFE was purchased from Interactiva (Ulm, Germany) and Aβ1-40 and disulfide-linked ABri23 were from Bachem (Bubendorf, Switzerland).
Peptides, except for KFFEYNGKKFFE, ABri23 and Aβ1-40, were acetylated at the N-terminus and amidated at the C-terminus. The compositions of all peptides were verified by ESI-MS and amino acid analysis. Peptide YYY was dissolved to a final concentration of 10 mM in 30% acetonitrile. VVV, FFF and LLL were dissolved in 50% isopropanol to a final concentration of 10 mM. KKK, GGG and AAA were dissolved in water to a final concentration of 10 mM, while KFFEYNGKKFFE and ABri23 were dissolved in water to final concentrations of 5.6 mM and 1 mM, respectively. All peptide samples were stored at −20° C., except for Aβ1-40 which was dissolved to a final concentration of 1 mM in water directly prior to analysis.
To further investigate the substrate specificity of Bri2(90-236), homotripeptides with aromatic (YYY, FFF), hydrophobic (VVV, LLL), charged (KKK) or small uncharged (AAA, GGG) side-chains, were employed to study binding, under maintained water solubility. […] The peptide sequences are denoted in each spectrum. Symbols * and ** indicate peaks corresponding to recombinant Bri2(90-236) with one or two peptide ligands, respectively. […] Bri2(90-236) also binds the peptide KFFEYNGKKFFE (FIG. 6).

Another data set has as its target T2, Aβ1-42 (Homo sapiens, UniProt P05067).
T2 construct: made in house; host or cells: E. coli
Put plainly: ThT aggregation kinetics of Aβ1-42 (Example 4). The format is biochemical. The settings on record: 0.1 and 1 molar equivalents to Aβ1-42; compared to the same amounts of Bri2(90-236); data not shown. The source says:
Aβ1-40 (SEQ ID NO: 11) and Aβ1-42 (SEQ ID NO: 12) were expressed in E. coli from synthetic genes and purified in batch format using ion exchange and size exclusion steps as described in Walsh et al., FEBS J. 2009, 276, 1266-1281, which results in highly pure monomeric peptide. Purified peptide was divided into 20-30 identical aliquots and frozen. Monomer was then isolated by gel filtration of an aliquot of purified peptide just prior to setting up each of the experiments listed below to remove traces of aggregate formed during freezing and thawing and to exchange buffer to the one used in the respective experiment. Monomer was collected in low-bind Ep-tubes ([…]) on ice, and the concentration was determined by absorbance or amino acid analysis after acid hydrolysis. The monomer was used as is or diluted to the desired concentration for the respective experiment. Bri2(90-236) (SEQ ID NO: 2) was expressed and purified as described in Example 1. Aggregation kinetics were studied by recording the Thioflavin T (ThT) fluorescence intensity as a function of time in a plate reader (FluoStar Omega from BMG Labtech, Offenberg, Germany). The fluorescence was recorded using bottom optics in half-area 96-well PEG-coated black polystyrene plates with clear bottom (Corning 3881) using 440 nm excitation filter and 480 nm emission filter. Aβ monomer was isolated by gel filtration as above in 20 mM Na-phosphate, 200 μM EDTA, 0.02% NaN3 (at pH 7.4 in the case of Aβ1-40 and at pH 8.0 for Aβ1-42) and diluted to 6 or 8 μM in the case of Aβ1-40 and 3 μM in the case of Aβ1-42 in the same buffer and supplemented with 20 μM ThT from a 2 mM stock. To each well in the 96-well plate was first added either 10 μl buffer (20 mM Tris/HCl pH 7.4) or 10 μl of Bri2(90-236) protein or control protein at ten times the desired final concentration in 20 mM Tris/HCl pH 7.4. To each well was then added 90 μl of the ice-cold Aβ monomer solution, and the plate was immediately placed in the plate reader at 37° C., with fluorescence read every 6 minutes with continuous shaking at 100 rpm between readings. […]

Another data set addresses T3, Aβ1-40 (Homo sapiens, UniProt P05067).
T3 construct: made in house; host or cells: E. coli
The format is biochemical. The conditions noted are these: 0.1 and 1 molar equivalents to Aβ1-40; compared to the same amounts of Bri2(90-236); data not shown. The source says: Aβ1-40 (SEQ ID NO: 11) and Aβ1-42 (SEQ ID NO: 12) were expressed in E. coli from synthetic genes and purified in batch format using ion exchange and size exclusion steps as described in Walsh et al., FEBS J. 2009, 276, 1266-1281, which results in highly pure monomeric peptide. Purified peptide was divided into 20-30 identical aliquots and frozen. Monomer was then isolated by gel filtration of an aliquot of purified peptide just prior to setting up each of the experiments listed below to remove traces of aggregate formed during freezing and thawing and to exchange buffer to the one used in the respective experiment. Monomer was collected in low-bind Ep-tubes ([…]) on ice, and the concentration was determined by absorbance or amino acid analysis after acid hydrolysis. The monomer was used as is or diluted to the desired concentration for the respective experiment. Bri2(90-236) (SEQ ID NO: 2) was expressed and purified as described in Example 1. Aggregation kinetics were studied by recording the Thioflavin T (ThT) fluorescence intensity as a function of time in a plate reader (FluoStar Omega from BMG Labtech, Offenberg, Germany). The fluorescence was recorded using bottom optics in half-area 96-well PEG-coated black polystyrene plates with clear bottom (Corning 3881) using 440 nm excitation filter and 480 nm emission filter. Aβ monomer was isolated by gel filtration as above in 20 mM Na-phosphate, 200 μM EDTA, 0.02% NaN3 (at pH 7.4 in the case of Aβ1-40 and at pH 8.0 for Aβ1-42) and diluted to 6 or 8 μM in the case of Aβ1-40 and 3 μM in the case of Aβ1-42 in the same buffer and supplemented with 20 μM ThT from a 2 mM stock. To each well in the 96-well plate was first added either 10 μl buffer (20 mM Tris/HCl pH 7.4) or 10 μl of Bri2(90-236) protein or control protein at ten times the desired final concentration in 20 mM Tris/HCl pH 7.4. To each well was then added 90 μl of the ice-cold Aβ monomer solution, and the plate was immediately placed in the plate reader at 37° C., with fluorescence read every 6 minutes with continuous shaking at 100 rpm between readings. Aβ1-40 was studied alone or with Bri2(90-236) at a concentration ranging from 60 nM to 6 μM. Aβ1-42 was studied alone or with Bri2(90-236) at a concentration ranging from 20 nM to 6 μM.

T2 sequence (P05067 672-713): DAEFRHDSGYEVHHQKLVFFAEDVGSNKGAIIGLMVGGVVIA
T3 sequence (P05067 672-711): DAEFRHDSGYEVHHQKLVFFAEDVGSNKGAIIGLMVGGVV

For the substance “AAA: homotripeptide with small uncharged side-chains”, the “complex formation of peptide with recombinant Bri2(90-236)” value (from here on “complex formation of peptide”) with recombinant Bri2(90-236) is listed as “No interactions were observed”.
“FFF: homotripeptide with aromatic side-chains (Ac-Phe-Phe-Phe-NH2)”: the “complex formation of peptide” value in the data set with recombinant Bri2(90-236) is “No interactions were observed”.
Same read-out and setting: the entry for “GGG: homotripeptide with small uncharged side-chains (Ac-Gly-Gly-Gly-NH2)” is “No interactions were observed”; for KFFEYNGKKFFE it is “found to form complexes”.
As for “KKK: homotripeptide with charged side-chains (Ac-Lys-Lys-Lys-NH2)”, the “complex formation of peptide” value with recombinant Bri2(90-236) is recorded as “No interactions were observed”.
The same measure, in the same setting: the entry for “LLL: homotripeptide with hydrophobic side-chains (Ac-Leu-Leu-Leu-NH2)” is “No interactions were observed”; for “VVV: homotripeptide with hydrophobic side-chains (Ac-Val-Val-Val-NH2)” it is “No interactions were observed”.
With “YYY: homotripeptide with aromatic side-chains (Ac-Tyr-Tyr-Tyr-NH2)”, the “number of peptide molecules per Bri2(90-236) in complexes” value with recombinant Bri2(90-236) (50 μM peptide) is “one or two”. Moreover, the “complex formation of peptide” value with recombinant Bri2(90-236) is on record as “found to form complexes”.
For the substance cystatin [reference compound], the “effects of control protein on Aβ1-42 aggregation (ThT assay)” value with Aβ1-42 is given as “small”. Moreover, the “effects of control protein on Aβ1-40 aggregation (ThT assay)” value with Aβ1-40 is on record as “small”.
